ChEMBL document CHEMBL1212771, “BEL-2, an extended-spectrum beta-lactamase with increased activity toward expanded-spectrum cephalosporins in Pseudomonas aeruginosa” (Antimicrob Agents Chemother, 2010)
Numbering of substitutions follows the chain as printed. ≈ marks a conversion by molar mass, not a printed value.

What was measured:
[1] = test system: Escherichia coli; assay: Antimicrobial activity against Escherichia coli TOP10 expressing recombinant beta-lactamase BEL-1 by solid agar dilution method; type: functional
[2] = test system: Pseudomonas aeruginosa; assay: Antimicrobial activity against Pseudomonas aeruginosa 51170 expressing beta-lactamase BEL-1 by solid agar dilution method; type: functional
[3] = test system: Escherichia coli; assay: Antimicrobial activity against Escherichia coli TOP10 expressing recombinant beta-lactamase BEL-2 by solid agar dilution method; type: functional
[4] = test system: Pseudomonas aeruginosa; assay: Antimicrobial activity against Pseudomonas aeruginosa 531 expressing beta-lactamase BEL-2 by solid agar dilution method; type: functional
[5] = test system: Escherichia coli; assay: Antimicrobial activity against Escherichia coli TOP10 by solid agar dilution method; type: functional
[6] = test system: Pseudomonas aeruginosa; assay: Ratio of Km for Pseudomonas aeruginosa 51170 beta-lactamase BEL-1 to Km for Pseudomonas aeruginosa 531 beta-lactamase BEL-2
[7] = substrate: O=C(Cc1cccs1)N[C@@H]1C(=O)N2C(C(=O)[O-])=C(C[n+]3ccccc3)CS[C@H]12; assay: (§1) Ratio of Kcat to Km for Pseudomonas aeruginosa 531 beta-lactamase BEL-2
[8] = substrate: CC1(C)S[C@@H]2[C@H](NC(=O)Cc3ccccc3)C(=O)N2[C@H]1C(=O)O; assay: as §1
[9] = substrate: CC(C)(O/N=C(\C(=O)N[C@@H]1C(=O)N2C(C(=O)[O-])=C(C[n+]3ccccc3)CS[C@H]12)c1csc(N)n1)C(=O)O; assay: as §1
[10] = substrate: C[C@H]1[C@H](NC(=O)/C(=N\OC(C)(C)C(=O)O)c2csc(N)n2)C(=O)N1S(=O)(=O)O; assay: as §1
[11] = substrate: CO/N=C(\C(=O)N[C@@H]1C(=O)N2C(C(=O)O)=C(COC(C)=O)CS[C@H]12)c1csc(N)n1; assay: as §1
[12] = substrate: CC(=O)OCC1=C(C(=O)O)N2C(=O)[C@@H](NC(=O)Cc3cccs3)[C@H]2SC1; assay: as §1
[13] = substrate: CCN1CCN(C(=O)N[C@@H](C(=O)N[C@@H]2C(=O)N3[C@@H]2SC(C)(C)[C@@H]3C(=O)O)c2ccccc2)C(=O)C1=O; assay: as §1
[14] = substrate: CO/N=C(\C(=O)N[C@@H]1C(=O)N2C(C(=O)[O-])=C(C[N+]3(C)CCCC3)CS[C@H]12)c1csc(N)n1; assay: as §1
[15] = substrate: CO/N=C(\C(=O)N[C@@H]1C(=O)N2C(C(=O)O)=C(COC(N)=O)CS[C@H]12)c1ccco1; assay: as §1
[16] = substrate: O=C(Cc1cccs1)N[C@@H]1C(=O)N2C(C(=O)[O-])=C(C[n+]3ccccc3)CS[C@H]12; assay: (§2) Activity at Pseudomonas aeruginosa 531 beta-lactamase BEL-2
[17] = substrate: CC1(C)S[C@@H]2[C@H](NC(=O)Cc3ccccc3)C(=O)N2[C@H]1C(=O)O; assay: as §2
[18] = substrate: CC(C)(O/N=C(\C(=O)N[C@@H]1C(=O)N2C(C(=O)[O-])=C(C[n+]3ccccc3)CS[C@H]12)c1csc(N)n1)C(=O)O; assay: as §2
[19] = substrate: C[C@H]1[C@H](NC(=O)/C(=N\OC(C)(C)C(=O)O)c2csc(N)n2)C(=O)N1S(=O)(=O)O; assay: as §2
[20] = substrate: CO/N=C(\C(=O)N[C@@H]1C(=O)N2C(C(=O)O)=C(COC(C)=O)CS[C@H]12)c1csc(N)n1; assay: as §2
[21] = substrate: CO[C@@]1(NC(=O)Cc2cccs2)C(=O)N2C(C(=O)O)=C(COC(N)=O)CS[C@@H]21; assay: as §2
[22] = substrate: CC(=O)OCC1=C(C(=O)O)N2C(=O)[C@@H](NC(=O)Cc3cccs3)[C@H]2SC1; assay: as §2
[23] = substrate: CCN1CCN(C(=O)N[C@@H](C(=O)N[C@@H]2C(=O)N3[C@@H]2SC(C)(C)[C@@H]3C(=O)O)c2ccccc2)C(=O)C1=O; assay: as §2
[24] = substrate: C[C@@H](O)[C@H]1C(=O)N2C(C(=O)O)=C(SCCNC=N)C[C@H]12; assay: as §2
[25] = substrate: CO/N=C(\C(=O)N[C@@H]1C(=O)N2C(C(=O)[O-])=C(C[N+]3(C)CCCC3)CS[C@H]12)c1csc(N)n1; assay: as §2
[26] = substrate: CO/N=C(\C(=O)N[C@@H]1C(=O)N2C(C(=O)O)=C(COC(N)=O)CS[C@H]12)c1ccco1; assay: as §2
[27] = substrate: O=C(Cc1cccs1)N[C@@H]1C(=O)N2C(C(=O)[O-])=C(C[n+]3ccccc3)CS[C@H]12; assay: (§3) Activity at Pseudomonas aeruginosa 51170 beta-lactamase BEL-1
[28] = substrate: CC1(C)S[C@@H]2[C@H](NC(=O)Cc3ccccc3)C(=O)N2[C@H]1C(=O)O; assay: as §3
[29] = substrate: CC(C)(O/N=C(\C(=O)N[C@@H]1C(=O)N2C(C(=O)[O-])=C(C[n+]3ccccc3)CS[C@H]12)c1csc(N)n1)C(=O)O; assay: as §3
[30] = substrate: C[C@H]1[C@H](NC(=O)/C(=N\OC(C)(C)C(=O)O)c2csc(N)n2)C(=O)N1S(=O)(=O)O; assay: as §3
[31] = substrate: CO/N=C(\C(=O)N[C@@H]1C(=O)N2C(C(=O)O)=C(COC(C)=O)CS[C@H]12)c1csc(N)n1; assay: as §3
[32] = substrate: CO[C@@]1(NC(=O)Cc2cccs2)C(=O)N2C(C(=O)O)=C(COC(N)=O)CS[C@@H]21; assay: as §3
[33] = substrate: CC(=O)OCC1=C(C(=O)O)N2C(=O)[C@@H](NC(=O)Cc3cccs3)[C@H]2SC1; assay: as §3
[34] = substrate: CCN1CCN(C(=O)N[C@@H](C(=O)N[C@@H]2C(=O)N3[C@@H]2SC(C)(C)[C@@H]3C(=O)O)c2ccccc2)C(=O)C1=O; assay: as §3
[35] = substrate: C[C@@H](O)[C@H]1C(=O)N2C(C(=O)O)=C(SCCNC=N)C[C@H]12; assay: as §3
[36] = substrate: CO/N=C(\C(=O)N[C@@H]1C(=O)N2C(C(=O)[O-])=C(C[N+]3(C)CCCC3)CS[C@H]12)c1csc(N)n1; assay: as §3
[37] = substrate: CO/N=C(\C(=O)N[C@@H]1C(=O)N2C(C(=O)O)=C(COC(N)=O)CS[C@H]12)c1ccco1; assay: as §3
[38] = substrate: O=C(Cc1cccs1)N[C@@H]1C(=O)N2C(C(=O)[O-])=C(C[n+]3ccccc3)CS[C@H]12; assay: (§4) Ratio of Kcat to Km for Pseudomonas aeruginosa 51170 beta-lactamase BEL-1
[39] = substrate: CC1(C)S[C@@H]2[C@H](NC(=O)Cc3ccccc3)C(=O)N2[C@H]1C(=O)O; assay: as §4
[40] = substrate: C[C@H]1[C@H](NC(=O)/C(=N\OC(C)(C)C(=O)O)c2csc(N)n2)C(=O)N1S(=O)(=O)O; assay: as §4
[41] = substrate: CO/N=C(\C(=O)N[C@@H]1C(=O)N2C(C(=O)O)=C(COC(C)=O)CS[C@H]12)c1csc(N)n1; assay: as §4
[42] = substrate: CC(=O)OCC1=C(C(=O)O)N2C(=O)[C@@H](NC(=O)Cc3cccs3)[C@H]2SC1; assay: as §4
[43] = substrate: CCN1CCN(C(=O)N[C@@H](C(=O)N[C@@H]2C(=O)N3[C@@H]2SC(C)(C)[C@@H]3C(=O)O)c2ccccc2)C(=O)C1=O; assay: as §4
[44] = substrate: CO/N=C(\C(=O)N[C@@H]1C(=O)N2C(C(=O)[O-])=C(C[N+]3(C)CCCC3)CS[C@H]12)c1csc(N)n1; assay: as §4
[45] = substrate: CO/N=C(\C(=O)N[C@@H]1C(=O)N2C(C(=O)O)=C(COC(N)=O)CS[C@H]12)c1ccco1; assay: as §4

C[C@H]1[C@H](NC(=O)/C(=N\OC(C)(C)C(=O)O)c2csc(N)n2)C(=O)N1S(=O)(=O)O [AZTREONAM]
MIC [1]: 16 µg/mL
MIC [2]: 16 µg/mL (≈ 36.7 µM)
MIC [3]: 16 µg/mL
MIC [4]: 64 µg/mL (≈ 147 µM)

CO/N=C(\C(=O)N[C@@H]1C(=O)N2C(C(=O)O)=C(COC(C)=O)CS[C@H]12)c1csc(N)n1 [CEFOTAXIME]
MIC [1]: 4 µg/mL
MIC [2]: 32 µg/mL (≈ 70.3 µM)
MIC [3]: 32 µg/mL
MIC [4]: 256 µg/mL (≈ 562 µM)
MIC [5]: 0.12 µg/mL (≈ 0.263 µM)

CC(C)(O/N=C(\C(=O)N[C@@H]1C(=O)N2C(C(=O)[O-])=C(C[n+]3ccccc3)CS[C@H]12)c1csc(N)n1)C(=O)O [CEFTAZIDIME]
MIC [1]: 16 µg/mL
MIC [2]: 32 µg/mL (≈ 58.5 µM)
MIC [3]: 128 µg/mL
MIC [4]: 256 µg/mL (≈ 468 µM)
MIC [5]: 0.06 µg/mL (≈ 0.11 µM)
Ratio [6]: < 3

CC1(C)S[C@@H]2[C@H](NC(=O)[C@H](N)c3ccc(O)cc3)C(=O)N2[C@H]1C(=O)O [AMOXICILLIN]
MIC [1]: > 512 µg/mL
MIC [2]: > 512 µg/mL
MIC [3]: > 512 µg/mL
MIC [4]: > 512 µg/mL
MIC [5]: 4 µg/mL (≈ 10.9 µM)

CC1(C)S[C@@H]2[C@H](NC(=O)[C@H](C(=O)O)c3ccsc3)C(=O)N2[C@H]1C(=O)O [TICARCILLIN]
MIC [1]: > 512 µg/mL
MIC [2]: > 512 µg/mL
MIC [3]: > 512 µg/mL
MIC [4]: > 512 µg/mL
MIC [5]: 4 µg/mL (≈ 10.4 µM)

B1: Beta-lactamase (Pseudomonas aeruginosa), D2SSQ3 (protein)
chain: MKLLLYPLLLFLVIPAFAQADFEHAISDLEAHNQAKIGVALVSENGNLIQGYRANERFAMCSTFKLPLAALVLSRIDAGEENPERKLHYDSAFLEEYAPAAKRYVATGYMTVTEAIQSALQLSDNAAANLLLKEVGGPPLLTKYFRSLGDKVSRFDRIEPTLNTNTPGDERDTTTPMSMAQTVSKLIFGDTLTYKSKGQLRRLLIGNQTGDKTIRAGLPDSWVTGDKTGSCANGGRNDVAFFITTAGKKYVLSVYTNAPELQGEERALLIASVAKLARQYVVH
kcat/Km [7]: 150000 M⁻¹ s⁻¹
kcat/Km [8]: 300000 M⁻¹ s⁻¹
kcat/Km [9]: 47000 M⁻¹ s⁻¹
kcat/Km [10]: 280000 M⁻¹ s⁻¹
kcat/Km [11]: 290000 M⁻¹ s⁻¹
kcat/Km [12]: 2.2e+06 M⁻¹ s⁻¹
kcat/Km [13]: 300000 M⁻¹ s⁻¹
kcat/Km [14]: 10000 M⁻¹ s⁻¹
kcat/Km [15]: 73000 M⁻¹ s⁻¹
Km [16]: 8 µM
kcat [16]: 1.2 s⁻¹
Km [17]: 4 µM
kcat [17]: 1.2 s⁻¹
Km [18]: 0.64 µM
kcat [18]: 0.03 s⁻¹
Km [19]: 0.36 µM
kcat [19]: 0.1 s⁻¹
Km [20]: 0.45 µM
kcat [20]: 0.13 s⁻¹
kcat [21]: < 0.01 s⁻¹
Km [22]: 2 µM
kcat [22]: 4.3 s⁻¹
Km [23]: 0.3 µM
kcat [23]: 1.1 s⁻¹
kcat [24]: < 0.01 s⁻¹
Km [25]: 0.3 µM
kcat [25]: 0.003 s⁻¹
Km [26]: 12 µM
kcat [26]: 0.88 s⁻¹

B2: Beta-lactamase bla(BEL1) (Pseudomonas aeruginosa), Q3SAW3 (protein)
chain: B1 chain with F155L
Km [27]: 130 µM
kcat [27]: 30 s⁻¹
Km [28]: 20 µM
kcat [28]: 3 s⁻¹
Km [29]: > 700 µM
kcat [29]: > 1.5 s⁻¹
Km [30]: 100 µM
kcat [30]: 10 s⁻¹
Km [31]: 250 µM
kcat [31]: 30 s⁻¹
kcat [32]: < 0.01 s⁻¹
Km [33]: 280 µM
kcat [33]: 150 s⁻¹
Km [34]: 15 µM
kcat [34]: 2 s⁻¹
kcat [35]: < 0.01 s⁻¹
Km [36]: 150 µM
kcat [36]: 1 s⁻¹
Km [37]: 40 µM
kcat [37]: 10 s⁻¹
kcat/Km [38]: 230000 M⁻¹ s⁻¹
kcat/Km [39]: 150000 M⁻¹ s⁻¹
kcat/Km [40]: 100000 M⁻¹ s⁻¹
kcat/Km [41]: 250000 M⁻¹ s⁻¹
kcat/Km [42]: 540000 M⁻¹ s⁻¹
kcat/Km [43]: 130000 M⁻¹ s⁻¹
kcat/Km [44]: 7000 M⁻¹ s⁻¹
kcat/Km [45]: 250000 M⁻¹ s⁻¹
